Assay [1] has as its target SIRPα V2-his (made by transient transfection of HEK293F cells according to SEQ ID NO:38) (Homo sapiens (Human)) (UniProt P78324). The assay is described as follows: BLI (Octet RED 96), His-tagged antigen on Ni-NTA sensor, antibody in solution. Background: BLI is a label-free optical method that tracks binding on a fibre tip over time.
For assay [2] the target is unchanged. Put plainly: competition ELISA; coated SIRPα-V2-his, biotin-CD47 as competitor. (In general: In an ELISA, binding on a coated surface is turned into a signal by an enzyme label.)

Chain of SIRPα V2-his (made by transient transfection of HEK293F cells according to SEQ ID NO:38) (Homo sapiens (Human)) (P78324 other isoform, or with tags, fused parts or gaps limits assumed): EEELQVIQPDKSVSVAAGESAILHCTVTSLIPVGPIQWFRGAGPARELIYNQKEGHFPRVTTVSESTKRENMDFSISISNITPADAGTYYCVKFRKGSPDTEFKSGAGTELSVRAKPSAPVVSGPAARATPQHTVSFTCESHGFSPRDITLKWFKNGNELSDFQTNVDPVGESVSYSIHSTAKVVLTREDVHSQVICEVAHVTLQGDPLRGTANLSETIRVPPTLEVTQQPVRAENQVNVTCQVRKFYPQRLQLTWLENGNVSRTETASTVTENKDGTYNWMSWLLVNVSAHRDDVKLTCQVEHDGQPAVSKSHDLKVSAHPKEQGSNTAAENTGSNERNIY

B1: AD4-12 (antibody, V domains shown)
VH: EVQLEESGPGLVAPSQSLSITCTVSGFSLTGYGVNWVRQPPGKGLEWLGIIWGDGSTDYNSALKSRLSISKDNSKSQVFLKMNSLQSDDTARYYCARAGKMDYWGQGTSVTVSS
VL: DIVLTQSPASLAVSLGQGATISCRASESVDSYGNSFMHWYQQKPGQPPKPLIYLASNLESGVPARFSGSGSRTDFTLTIDPVEADDAATYYCQQNNEYPWTFGGGTKLEIK
Take B1: in assay [1], the dissociation constant (Kd) (in general, the free concentration of one partner at which half of the binding sites on the other are occupied at equilibrium, for simple one-to-one binding) came to 0.898 nM; the koff (in general, a measure of how fast the partners let go of each other) was 0.000327 s⁻¹; the kon (in general, the second-order rate constant of association) is 364000 M⁻¹ s⁻¹. In assay [2], the half-inhibitory concentration (IC50) (commonly the concentration at which inhibition is half-maximal) was determined as 9.32 nM.

The record behind these values is US20240368301A1.
